B1: mouse MIGA2 residues 275-570, wild type [mouse (Mus musculus)] / MSP domain of mouse VAPB (residues 1-125) fused to GST [mouse (Mus musculus)] (parent complex)
chain 1: GSLRLRADDEDSLTSEDSFFSATEIFESLQIGEYPLPLSRPAAAYEEALQLVKEGRVPCRTLRTELLGCYSDQDFLAKLHCVRQAFEGLLEERSNQIFFGEVGRQMVTGLMTKAEKSPKGFLESYEEMLSYALRPETWATTRLELEGRGVACMSFFDIVLDFILMDAFEDLENPPSSVLAVLRNRWLSDSFKETALATACWSVLKAKRRLLMVPDGFISHFYSVSEHVSPVLAFGFLGPKPQLSEVCAFFKHQIVQYLRDMFDLDNVRYTSVPALAEDILQLSRRRSEILLGYLGA
chain 2: MAKVEQVLSLEPQHELKFRGPFTDVVTTNLKLGNPTDRNVCFKVKTTVPRRYCVRPNSGVIDAGASLNVSVMLQPFDYDPNEKSKHKFMVQSMFAPPDTSDMEAVWKEAKPEDLMDSKLRCVFEL

Experimental findings from paper PMC9239997, “Structural basis for mitoguardin-2 mediated lipid transport at ER-mitochondrial membrane contact sites” (Nature Communications, 2022) are described below.

In the experiment the parent is B1. Nature of the experiment: GST pull-down; parent: 0.01; read off a plot.
With chain 1 GSLRLRADDEDSLTSEDEFFDATEIFESLQIGEYPLPLSRPAAAYEEALQLVKEGRVPCRTLRTELLGCYSDQDFLAKLHCVRQAFEGLLEERSNQIFFGEVGRQMVTGLMTKAEKSPKGFLESYEEMLSYALRPETWATTRLELEGRGVACMSFFDIVLDFILMDAFEDLENPPSSVLAVLRNRWLSDSFKETALATACWSVLKAKRRLLMVPDGFISHFYSVSEHVSPVLAFGFLGPKPQLSEVCAFFKHQIVQYLRDMFDLDNVRYTSVPALAEDILQLSRRRSEILLGYLGA [chain 1 S18E, chain 1 S21D], the screen value is roughly 1. For the variant chain 1 GSLRLRADDEDSLTSEDSFFDATEIFESLQIGEYPLPLSRPAAAYEEALQLVKEGRVPCRTLRTELLGCYSDQDFLAKLHCVRQAFEGLLEERSNQIFFGEVGRQMVTGLMTKAEKSPKGFLESYEEMLSYALRPETWATTRLELEGRGVACMSFFDIVLDFILMDAFEDLENPPSSVLAVLRNRWLSDSFKETALATACWSVLKAKRRLLMVPDGFISHFYSVSEHVSPVLAFGFLGPKPQLSEVCAFFKHQIVQYLRDMFDLDNVRYTSVPALAEDILQLSRRRSEILLGYLGA [chain 1 S21D], the screen value is roughly 0.4. For chain 1 GSLRLRADDEDSLTSEDEFFSATEIFESLQIGEYPLPLSRPAAAYEEALQLVKEGRVPCRTLRTELLGCYSDQDFLAKLHCVRQAFEGLLEERSNQIFFGEVGRQMVTGLMTKAEKSPKGFLESYEEMLSYALRPETWATTRLELEGRGVACMSFFDIVLDFILMDAFEDLENPPSSVLAVLRNRWLSDSFKETALATACWSVLKAKRRLLMVPDGFISHFYSVSEHVSPVLAFGFLGPKPQLSEVCAFFKHQIVQYLRDMFDLDNVRYTSVPALAEDILQLSRRRSEILLGYLGA [chain 1 S18E] the value was roughly 0.01.
